{
  "source": "patent US20210045419A1",
  "about": "(UNIVERSITY OF MANITOBA, published 2021)",
  "target": "T1, bitter taste receptor T2R4 (UniProt Q9NYW5 1-299, limits assumed)",
  "T1 sequence (looked up)": "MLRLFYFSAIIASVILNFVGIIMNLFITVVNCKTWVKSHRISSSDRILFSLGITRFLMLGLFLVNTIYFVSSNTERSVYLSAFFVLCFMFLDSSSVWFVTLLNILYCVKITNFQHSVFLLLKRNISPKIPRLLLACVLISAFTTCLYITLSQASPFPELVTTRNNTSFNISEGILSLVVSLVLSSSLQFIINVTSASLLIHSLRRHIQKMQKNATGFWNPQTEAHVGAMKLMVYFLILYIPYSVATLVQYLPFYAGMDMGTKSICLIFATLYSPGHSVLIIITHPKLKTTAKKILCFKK",
  "assay": "cell-based or functional assay",
  "data": [
    {"binder": "AGDDAPRAVF", "note": "[AGDDAPRAVF (SEQ ID No:5)]", "values": [
      {"measurement": "IC50, peptide and quinine (1 mM) competition calcium mobilization assay on T2R4-expressing HEK293T cells", "result": 85, "unit": "µM"}
    ]}
  ]
}
